The values that follow come from paper PMC7308587.

The target in experiment [1] is PpPIIa, recombinant mature protein (without the chloroplast transit peptide) (Pinus pinaster (maritime pine)). The experiment is described as follows: SEC; ENrich SEC 650 10 x 300 column (FPLC), 250 uL of protein at 0.6 ug/uL in 25 mM Tris-HCl pH 7.5, 150 mM NaCl, 10% glycerol, room temperature, 0.75 mL/min; calibrated with protein standards; fractions checked by western blot. (In general: In gel filtration, larger molecules generally elute earlier.)

The target in experiment [2] is PpNAGK, recombinant mature N-acetylglutamate kinase (301 residues without cTP) fused to a His-tag (Pinus pinaster (maritime pine)).
Experiment [3] has as its target PpPIIb, recombinant mature protein (without the chloroplast transit peptide) (Pinus pinaster (maritime pine)). The experiment is described as follows: SEC; ENrich SEC 650 10 x 300 column (FPLC), 250 uL of protein at 0.6 ug/uL in 25 mM Tris-HCl pH 7.5, 150 mM NaCl, 10% glycerol, room temperature, 0.75 mL/min; calibrated with protein standards; fractions checked by western blot.

As a reminder, the stoichiometry N is a count of units in the complex or per binding partner.

Regarding “PpPIIa, recombinant mature protein (without the chloroplast transit peptide) (natural protein)”, the stoichiometry N in experiment [1] is 3. In addition, in experiment [2], the PpNAGK enzyme activity (N-acetylglutamylhydroxamate assay) with increasing amounts of PpPIIa mixed with 0.65 ug PpNAGK was 5 fold.

For the substance “PpPIIb, recombinant mature protein (without the chloroplast transit peptide) (natural protein)”, the stoichiometry N in experiment [3] was 3. The PpNAGK enzyme activity (N-acetylglutamylhydroxamate assay) with increasing amounts of PpPIIb mixed with 0.65 ug PpNAGK in experiment [2] was 5 fold.
